Experimental data as given in patent US20190127440A1 (VIB VZW, published 2019).
Each block holds one molecule with its values, some of them ahead of it.

Key:
[1] = target: full-length FLAG-tagged human TSLPR and full-length HA-tagged human IL-7Ralpha co-expressed on HEK293T cells (human) (UniProt Q9HC73); experiment: cell-based or functional assay
[2] = target: T1, C-terminally biotinylated human TSLP_R127A_R130S (pHL-TSLP_R127A_R130S-AVITAG construct) (human, UniProt Q969D9 29-159, specific C-terminal in vivo biotinylation on the AVITAG); experiment: biolayer interferometry (Octet RED96), biotinylated TSLP on streptavidin biosensors, 1:1 model
T1 construct: Made in HEK293T cells with BirA co-transfection; immobilised on streptavidin biosensors for BLI; also called biotinylated TSLP; not shown: C-terminal AVITAG (and purification tag) of the pHL-AVITAG vector
T1 sequence (Q969D9 29-159 R127A/R130S limits assumed): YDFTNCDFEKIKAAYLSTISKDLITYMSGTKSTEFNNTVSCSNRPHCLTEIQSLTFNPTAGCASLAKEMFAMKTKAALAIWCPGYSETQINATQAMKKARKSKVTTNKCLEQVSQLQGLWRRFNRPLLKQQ

[3] = target: T1, C-terminally biotinylated human …; experiment: biolayer interferometry (Octet RED96), biotinylated TSLP on streptavidin biosensors, 1:1 model, average of three replicates
Protocol: All BLI experiments were performed in PBS buffer supplemented with 0.01% (w/v) BSA and 0.002% (v/v) Tween 20, with an Octet RED96 instrument (ForteBio), operating at 25° C.
All data were fitted with the FortéBio Data Analysis 9.0.0.4 software using a 1:1 ligand model. The reported values for the fitted parameters represent the average (and standard deviation) from three replicate measurements.

full-length FLAG-tagged human TSLPR and full-length HA-tagged human IL-7Ralpha co-expressed on HEK293T cells (human), sequence (Q9HC73 23-371, chain 1 of 2): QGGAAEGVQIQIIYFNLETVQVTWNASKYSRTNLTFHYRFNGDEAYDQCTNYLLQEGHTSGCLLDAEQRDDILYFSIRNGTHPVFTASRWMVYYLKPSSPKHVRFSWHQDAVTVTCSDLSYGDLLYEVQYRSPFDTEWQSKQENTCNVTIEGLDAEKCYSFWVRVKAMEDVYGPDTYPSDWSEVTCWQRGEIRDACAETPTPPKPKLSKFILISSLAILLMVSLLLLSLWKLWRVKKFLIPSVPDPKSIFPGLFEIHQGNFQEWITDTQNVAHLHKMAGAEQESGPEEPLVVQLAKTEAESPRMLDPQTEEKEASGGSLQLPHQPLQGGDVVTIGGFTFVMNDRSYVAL
full-length FLAG-tagged human TSLPR and full-length HA-tagged human IL-7Ralpha co-expressed on HEK293T cells (human), sequence (P16871 21-459, chain 2 of 2, further chain): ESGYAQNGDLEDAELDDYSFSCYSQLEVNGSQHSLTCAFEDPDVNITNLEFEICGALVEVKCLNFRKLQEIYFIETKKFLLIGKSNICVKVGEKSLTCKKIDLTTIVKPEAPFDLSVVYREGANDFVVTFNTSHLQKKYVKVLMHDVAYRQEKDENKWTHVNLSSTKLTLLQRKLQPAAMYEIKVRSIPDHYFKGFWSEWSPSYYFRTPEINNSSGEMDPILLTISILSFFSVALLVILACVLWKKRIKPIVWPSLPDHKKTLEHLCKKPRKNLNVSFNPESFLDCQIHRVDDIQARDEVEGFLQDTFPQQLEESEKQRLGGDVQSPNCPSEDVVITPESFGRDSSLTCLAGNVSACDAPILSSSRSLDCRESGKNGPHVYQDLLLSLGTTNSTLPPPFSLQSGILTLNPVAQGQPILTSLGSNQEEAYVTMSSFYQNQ

STAT5-dependent luciferase activity in HEK293T cells transfected with full-length TSLPR and IL-7Ralpha [1]: 9 pM
Molecule: human TSLP_R127A_R130S, mammalian-cell derived recombinant, C-terminal His-tag (from UniProt Q969D9 29-159) (ligand)

koff [2]: 1.72e-05 s⁻¹ | Kd [3]: 0.12 nM | kon [3]: 140000 M⁻¹ s⁻¹
B1: human TSLP-trap1 (designed binder)
chain: GAAEGVQIQIIYFNLETVQVTWNASKYSRTNLTFHYRFNGDEAYDQCTNYLLQEGHTSGCLLDAEQRDDILYFSIRNGTHPVFTASRWMVYYLKPSSPKHVRFSWHQDAVTVTCSDLSYGDLLYEVQYRSPFDTEWQSKQENTCNVTIEGLDAEKCYSFWVRVKAMEDVYGPDTYPSDWSEVTCWQRGEIRDACAETPTPPKPKLSKSRGGSGGSGGSGGSGGSGGSGGSGGSGGSGGSGGSGGSGGSGGSGGSGGSGGSGGSGGSGGSLQESGYAQNGDLEDAELDDYSFSCYSQLEVNGSQHSLTCAFEDPDVNTTNLEFEICGALVEVKCLNFRKLQEIYFIETKKFLLIGKSNICVKVGEKSLTCKKIDLTTIVKPEAPFDLSVIYREGANDFVVTFNTSHLQKKYVKVLMHDVAYRQEKDENKWTHVNLSSTKLTLLQRKLQPAAMYEIKVRSIPDHYFKGFWSEWSPSYYFRTPEINNSSGEMDGTKHHHHHH
notes: Monomeric single chain fusion protein; Produced in T-REx-293 cells
